The nanobody polyreactivity screen of Harvey et al. (2022)

Assay: yeast display, Sf9 membrane polyspecificity reagent, FACS + sequencing; frameworks hold sequencing errors
Procedure, shortened: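 Genes from sorted yeast were amplified by colony PCR, read by MiSeq 2 × 250 sequencing and filtered on CDR length. These cells carried a synthetic nanobody library in Saccharomyces cerevisiae BJ5465 and were sorted by FACS into low and high (top ~1%) gates on anti-HA and streptavidin fluorescence. Polyreactivity is labelled according to the gate of origin.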

Row | Sequence | polyreactivity (PSR sort gate)
1 | QVQLLESGVGLVQAGGSLRLSCAASGTIFVDYAMGWYRQAPGKERQLVAAITSVGRTNYADSVKGRFTISRDNAKNTVYLQMNSLKPEDTAVYYCNKTRYTNYYTTTFDYWGQGTQVTVSS | low polyreactivity
2 | QVQLLETGGGLVQAGRSHRLSCAASGLTFEDYAMGWYRQAPGKESELVAAITYSGGSTYYADSVKGRFTISRDNAKNSVYLQMMSLKPEDTAVSVCAAVSTLRPSWKRYYYWGQGNQVTVSS | high polyreactivity
3 | QVQLLETGRGLFQEGGSLRLSCAASGGTFGAYVMGWYRQAPGKERELVAAISRSGTRTYYADSVKRRFTISRDNEKNTVYLQMNWLKPEDTAVYYCNAVGYTNRYDDWGQGTQVTVSS | high polyreactivity
4 | QVQLLHSGGGKVQAGGRLRLSCAASGFIFCYYAMGWYRQAPGKERELVATISSGGNTYYADSVKGRFTISRDNAKNTVYLQMNSLKPEDTAVYYCAARWGVRPFYSTQYRYYYWGQGTQVTVSS | high polyreactivity
5 | QVQLLQTGGGLVQAGGSLRLSCAASGSNFVIYAMGWYIQAPWNERELVATISGGGRTNYADSLKGRFTISRDNAKNTVYLQMNSLKPEDTAVYYCNGDQYGSYLGVGFDYWGQGTQVTVSS | high polyreactivity
6 | QVQLQDSCGGLVQAGGSLRLNCATSGTIFVLWYMGWYRQAPGKERELVATINHGANTYSADSVKGRFTINRDNGNSTVYLQMNSLQPEDTAVYYCAVYAIIVWGLGYWGQGTQVTVSS | high polyreactivity
7 | QVQLQDSGGGLVQAGGSLRLNCATSGTIFVLWYMGWYRQAPGKERELVATINDGANTYYADSVKGRFTINRDNAYSTVYLKMNSLKPEDTAVYYCAVYAIIVWGLGYWGQGTQVTVSS | high polyreactivity
8 | QVQLQDSGGGLVQAGGSLRLSCAASGTISYRYRMGWYRQAPRKELELVAGISFGSITYYADSVKGRFTISRDNAKNTVYLQMNSLKPEDIAVYYCAVYQKSYRFFPYWGQGTQVTVSS | high polyreactivity
9 | QVQLQDSGGGLVQAGGSLRLSCAASGTIVTARFMGWYRQAPGKERELVATITDGGNTNHADSVKGRFTISRDNAKNTVYLQMNSLKPEDAAVYYCAAGEVDNDTLLYWGQGSQVTVSS | low polyreactivity
10 | QVQLQECGGGLVQAGRSLRLSCAASGTFSNSVKWLYCQAPGKEREFVATIGVGGSTNYADSVKGRFTISRDNAKYTVYLQMNSLKPEDTGVYHCAGYGAASNFHYDRGQGTQVTVSS | low polyreactivity
11 | QVQLQEGGGGLVQAGGSLRLSCAASGYIFNGDWMGWYRQAPGKERELVATINYGATTNYADSVKGRFTISRDNAKNTVYLQMNSLKPEDTAVYYCAVGGHGAQLYVYWGQGTQVTVSN | high polyreactivity
12 | QVQLQEIVGGLVQAGGSLRLSCAASGNNFDADIMGLYRQAPGKERELVASVTDGGSTNYADSVKGRFTISRDNAKNSVYLQMNILKPEDTAVYYCAAIVYPDILTYFDYDYDYFYWGQGTQVTVGS | low polyreactivity
13 | QVQLQERAAWCRRAGSLRLSCAASGNISDYYFMGWYRQAPGKERERVAAIAPGSKTYYADSVKGRFTISRDNAKNTVYLQMNSLKPEDTAVCFCAANSTQYTWFDYWGQGTQVPVSS | low polyreactivity
14 | QVQLQESASGLVQAGGSLRLSCAASGAIFPAYLMGWYRQAPGKERELVAGISYGSITYCADSVKGRFNISRDNAKNTVYLQMNSLKPEDTAVYYCAKDIGVRRRDYEDYEYWGQGTQVTVSS | low polyreactivity
15 | QVQLQESCGALVQAGGTLRLSCAASGSIFEQLDMGWNRQAPGKELEFVAAIGTGSTTYYADSVKGRFSISRDNAKNTVYLQRNSLKPEDTAVYYCAVTYSVYLPFRYWGQGTQVTVSS | high polyreactivity
16 | QVQLQESCGGLVQAGGSLCLSCAASGTIFFDGDMGWYRQAPGKEREFVAAINPGGSAYYADSVKGRLPLAAITHTVYLQMNSLKPEDTAVYYCAAKLFDVYGYYYWGQGTHVTVSS | low polyreactivity
17 | QVQLQESCGGLVQAGGSQRLSCAASAYIFYFQYMGWYRQAPGKEREFVAAISDGANTNYADSVKGRFTISRDNAKNTEYLQMNSLKPEDTAVYYCAVYADENFYYIYWGQGTEVTVSS | low polyreactivity
18 | QVQLQESDGGLVQAGGSLRLSCAASGNIFPTDRMGRYRQAPAKVLEFVATISHGGSTNYADSVKGRFTISRDNATNTVYLQMNSLKPEDTAVYYCAVWSLGRCRHYYWGQGTHVTVSS | low polyreactivity
19 | QVQLQESDGGLVQAGGSLRLSCAASGSISPQYYMGWYRQAPGKEREYVAISKGTTTYSADSVKGRLTISRVNAKNTVYLQMNSLKPEDTAVYCCAAGRWLQKVHAYWDQGTQVTVSS | low polyreactivity
20 | QVQLQESDGGLVQAGGSLRLTCAASGSISPQYYMGWYRQAPGKEREFVAISKGTTTYYADSVKGRLTISRVNANNTVYLQMNSLKPEDTAVYCCAAGRWLQKVHAYWDQGTQVTVSS | low polyreactivity
21 | QVQLQESGAGLVQAGGDLRLSCAASGNIFRDYIMGWYRQAPGKEREFVAGIDRGANTNYADSVKGRFTISRDNAKNTVYLQMNSLKPEDTAVYYCAVHTAIVPDFIYWGQGTQVTVSS | low polyreactivity
22 | QVQLQESGDGLVQAGGSLRLSSAASGTIFSDYGMGGYRQAPGKERELLAGISDGCNTNYTDSVKGRFTISRDNAHRVSADEQPETGGYRGVLLGGSERWLIFYVYWGQGTQVTVSC | high polyreactivity

Row | Sequence | polyreactivity (PSR sort gate)
23 | QVQLQESGDGLVQAGGSLRLSSAASGTIFSDYGMGWYRQAPGKERELLAGISDGCNTNYTDSVKGRFTISRDNAHRVSADDQPETGGYRGVLLRGSERWLLFYVYWGLGTQVTVSS | high polyreactivity
24 | QVQLQESGDGLVQAGGSLRLSSGASGTIVSDYGMGGYRQAPGKERELLAGISDGCNTNYTDSVKGRFTISRDNAHRVSADEQPETGGYLGVLLRGTERWLHFYVYWGQGTQVTVSS | high polyreactivity
25 | QVQLQESGDGLVQALGSLRLSCAASGYISGYYYMGWYRQAPGKERELVAGIDAFGSSTNYADCVKGRFTISRDNAKNTVYLQMNSPKPVDTAVYYCAAEYDDWDYHWYWGEGTQVTVSS | low polyreactivity
26 | QVQLQESGDGLVQAVGSLRLSCAARGYISGYYYMGWYRQAPGKERELVAGIDAFGSSTNYADCVKGRFTISRDNAKNTVYLQMNSLKPEDTAVYYCAARPDGDRLFSYWGQGTQVTVSS | low polyreactivity
27 | QVQLQESGGCLVQAGGSLRLSCAASGTNLYSLGMGWSRQAPGKRREFVASITWGTTTNYAESENGRFTISRDNAKKTVYPQRNSLKPEDTAVYYCAAPPFGDSSYHYWGQATQVTVSS | low polyreactivity
28 | QVQLQESGGDLEQAGGSLRLSCTASGTISDVRVMGWYRQAPGKERELVATISYVTITYYADSVKGRFTISRDSEKHRVSADDEPETGRYGGVLLRYYWGLGTQVTVSS | low polyreactivity
29 | QVQLQESGGGLEQAGGSLRKSCAANGNIFDADIVGRYRQAPGKKPELVDSITDGGITNYADSVKGRFTISRDNAKYTVYLQMNIQNPEDTAVYYCASIAYPDIPTFFDYYSYFFYWGQGTQVTVSS | high polyreactivity
30 | QVQLQESGGGLEQAGGSLRLSCAASGNISSWYPMGWYRQAPGKEREFVATIAPVATTNYADSVKGRFTISRDYAKITVYLQMNSLKPEDTAVNYCAAGPDNNDFYSYWGQGTQVTVSS | low polyreactivity
31 | QVQLQESGGGLEQAGGSLRPSCAASGSISDGVPMGWYRQAPGEERELVATTVLGATTNYADSVKGRFTISRGNAKNTVYLQMNSLKPEETAVYYCAAPLRYDKGFSYWGQGTQVTVSS | low polyreactivity
32 | QVQLQESGGGLMQAGGNLRLSCAASGYISTHYDMDWYRQAPGKERELVARIDDGAITNYADSVKGRFTISRDNAKKTVYLQMNSLKPEDTAVYYCAVYYGDEYYHDYWGQGTQVTVSS | low polyreactivity
33 | QVQLQESGGGLMQAGGSQRLSCAARGSISYYSDMGWYLQAPGKEREFVAGIGYGTTTNYADSVKGRFTTSRDNAKNTVYLQMISMKPEDTAVYYCAAYQGNGYEFYYWGQGTQVTVRS | low polyreactivity
34 | QVQLQESGGGLMQAGGSQRLSCAASGSISYYSDMGWYRQAPGKEREFVAGIGYGTTTNYADSVKGRFTTSRDNAKNTVYLQMISMKPEDSAVYYCAAYQGNGYEFYYWGQGTQVTVRS | low polyreactivity
35 | QVQLQESGGGLVKAGGSLRLSCAASGNISNHNDMGWYRQAPGKESEFVAGITAGGITNYADSVKGRFTISRDNAKNTVYLQMNSLKPEDTAVYYCAAYPDYAKSYGYWGQGTQATVSS | low polyreactivity
36 | QVQLQESGGGLVLAGGSLRLSCSASGNISVYGSMGWYRQAPGKEREFVATIAPGTNTNYADSVKDRFTISRDNAKNTVYLQMNSLKPEDTAVYYCAARHPSSAYWVGYYWYDYWGQGTQVTVSS | low polyreactivity
37 | QVQLQESGGGLVLAGGSLRLSCSASGNISVYGSMGWYRQAPGKEREFVATIDPGTNTNYADSMKDRFTISRDNAKNTVYLQMNSLKPEDTAVYYCAVEAGSDWPYRYWGQGTQVTVSS | low polyreactivity
38 | QVQLQESGGGLVQACGSLRLSCAASGYISHADEMGWYRQAPGKEHELVASISNGGSTNYADSVKGRFTMSRDNAKNTVYLQMNSLKSEDTAVYYCAAWTGQVDIHYYWGQGTKVTVSS | low polyreactivity
39 | QVQLQESGGGLVQAGDSQRLSCAASGNSFRFTHMGWYRQAPGKERELVAASNAGSTTYYADSVKGRFTISRDNAKNTVYLQMKSLKPEDTAVYYCAVYYLGSGTFGYWGQGAQVTVSS | high polyreactivity
40 | QVQLQESGGGLVQAGGCLRLSCAASGSIFTYAVMGWYRQAHGKEHELVATIDTGSSTYYADSVKGRITISRDNAKNTLYLQMNSLKPEDTAVYYCAVNTYCRVRYRYWGQGTQVTVSS | high polyreactivity
41 | QVQLQESGGGLVQAGGDLRLSCEASGNIFRDYIMGWYRQAPGKEREFVAGIDRGANTNYADSVKGRFTISRDNAKNTVYLQMNSLQPEDTAVYYCAVHTAIVPDFIYWGQGTQVTVRS | low polyreactivity
42 | QVQLQESGGGLVQAGGSLGCAASCNISTRSEMGWYRQAPGKEREFVATINSGGITNYADSLKGRFTISRDNAKNTVYLRKNSLKAEVTAVYYRAVYGYFSYPYDYWGQGTQVSVSS | low polyreactivity
43 | QVQLQESGGGLVQAGGSLGCAASGNISTRSEMGWYRQSPGKEREFVATINSGGITNYADSVKGRFTISRDNAKNTVYLRMNSLKPEDTAVYYRAVYGYFSDPYDYWGQGTQVTVSS | low polyreactivity
44 | QVQLQESGGGLVQAGGSLLLSCAASGSISGPHVMGWYRQAPGKEREFVAAINVGANTYYADNVKGRFTISRDNAKNTVYLQMNSLKPEDTAVYYCAAVYYGDIGHEYWGQGTQVTVSC | low polyreactivity
